Laboratory results reported in IntAct's records for PubMed 18007657.

Molecular target: T1, anm10_arath PRMT10 (UniProt Q9MAT5)
T1 sequence: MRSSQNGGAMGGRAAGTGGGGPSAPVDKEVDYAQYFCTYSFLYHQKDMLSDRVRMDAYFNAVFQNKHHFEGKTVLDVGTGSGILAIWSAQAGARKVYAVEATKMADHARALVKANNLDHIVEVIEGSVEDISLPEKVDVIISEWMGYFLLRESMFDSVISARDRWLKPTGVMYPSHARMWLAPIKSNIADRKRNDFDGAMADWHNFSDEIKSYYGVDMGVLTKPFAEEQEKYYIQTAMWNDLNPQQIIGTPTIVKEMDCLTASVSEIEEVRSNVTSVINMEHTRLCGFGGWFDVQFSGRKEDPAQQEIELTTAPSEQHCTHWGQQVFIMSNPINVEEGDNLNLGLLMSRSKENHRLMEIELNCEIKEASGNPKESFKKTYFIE

effect of a mutation on the interaction: decreasing interaction
Substance: Histone H4 (Bos taurus (Bovine)) (from UniProt P62803) R4L
